Assay results as given in patent WO2007030708A2 (dated 2007).

Target: T1, S-TNF, human TNFα fusion protein with an N-terminal S-Tag (human, UniProt P01375 77-233)
T1 construct: Made, expressed and purified by the applicants; not shown: 15 amino acid S-Tag peptide (Novagen)
Assay: indirect ELISA: sp55 from conditioned medium captured on Ni-NTA wells, S-TNF at 1 μg/mL, S-protein-HRP detection, absorbance at 370 nm

T1 sequence (P01375 77-233): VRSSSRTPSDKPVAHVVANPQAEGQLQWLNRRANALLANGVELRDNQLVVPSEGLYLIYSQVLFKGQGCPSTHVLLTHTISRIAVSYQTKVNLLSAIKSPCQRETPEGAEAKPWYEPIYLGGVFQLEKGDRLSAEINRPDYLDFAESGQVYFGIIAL

- fold elevation in S-TNF binding over non-specific binding in control samples: 3 fold
B1: sp55, soluble TNF receptor p55: ecto-domain of human TNFR-1 (residues 30-211) with C-terminal myc and His6 tags (receptor)
chain: DAAQPARRAVRSLVPHLGDREKRDSVCPQGKYIHPQNNSICCTKCHKGTYLYNDCPGPGQDTDCRECESGSFTASENHLRHCLSCSKCRKEMGQVEISSCTVDRDTVCGCRKNQYRHYWSENLFQCFNCSLCLNGTVHLSCQEKQNTVCTCHAGFFLRENECVSCSNCKKSLECTKLCLPQIENVKGTEDSGTTRGGPEQKLISEEDLNSAVDHHHHHH
notes: Used as conditioned medium of transfected 293T cells; also called p55FL-myc-his; p55L
